# Laboratory results: patent US9873895B2, “Production of 1,3-dienes by enzymatic conversion of 3-hydroxyalk 4-enoates and/or 3-phosphonoxyalk-4-enoates” (Scientist of Fortune S.A., priority 2011, dated 2018)
# Test: 1,3-butadiene production from 3-phosphonoxypent-4-enoate by using a terpene synthase (headspace GC-FID)
# Assay type: biochemical
# Conditions: 5 mg/ml enzyme, 50 mM 3-phosphonoxypent-4-enoate, 37° C., 24 hours
# Method: The reactions were performed in sealed vials. The total volume was 0.5 ml. Final concentrations were 5 mg/ml enzyme, 50 mM 3-phosphonoxypent-4-enoate, 4 mM DTT, 50 mM MgCl2, 50 mM KCl, 50 mM Tris-HCl buffer pH 7.5. The incubation was carried out at 37° C. for 24 h. The control reactions without enzyme or without substrate were performed in parallel under the same conditions.
# One ml of the gaseous phase of the reaction was collected and analyzed by Gas-Chromatography with Flame Ionization Detector (GC-FID) ((Brucker GC 450) using a RTX-alumina column (Varian), with an isocratic elution at 130° C. and nitrogen as carrier gas at flow rate of 1.5 ml/min. The retention of commercial 1,3-butadiene (Sigma) in these conditions was 7.4 min.
molecule,measurement,value
"isoprene synthase from Pueraria montana var. lobata: purified His-tagged isoprene synthase (terpene synthase), Uniprot Q6EJ97, SEQ ID NO: 30, expressed in E. coli (protein, listed as Pueraria montana, His tag; var. lobata) MCATSSQFTQITEHNSRRSANYQPNLWNFEFLQSLENDLKVEKLEEKATKLEEEVRCMINRVDTQPLSLLELIDDVQRLGLTYKFEKDIIKALENIVLLDENKKNKSDLHATALSFRLLRQHGFEVSQDVFERFKDKEGGFSGELKGDVQGLLSLYEASYLGFEGENLLEEARTFSITHLKNNLKEGINTKVAEQVSHALELPYHQRLHRLEARWFLDKYEPKEPHHQLLLELAKLDFNMVQTLHQKELQDLSRWWTEMGLASKLDFVRDRLMEVYFWALGMAPDPQFGECRKAVTKMFGLVTIIDDVYDVYGTLDELQLFTDAVERWDVNAINTLPDYMKLCFLALYNTVNDTSYSILKEKGHNNLSYLTKSWRELCKAFLQEAKWSNNKIIPAFSKYLENASVSSSGVALLAPSYFSVCQQQEDISDHALRSLTDFHGLVRSSCVIFRLCNDLATSAAELERGETTNSIISYMHENDGTSEEQAREELRKLIDAEWKKMNRERVSDSTLLPKAFMEIAVNMARVSHCTYQYGDGLGRPDYATENRIKLLLIDPFPINQLMYV",ratio of butadiene produced in the presence of isoprene synthase versus in the absence of enzyme (butadiene peak areas),about 5 fold
